Test results from the supplement of paper PMC10724198.
± gives the standard deviation of the averaged measurements.

Test system: Saccharomyces cerevisiae
Assay: protein stability index of tFT-peptide fusion (C-terminal peptide) (PSI (0-1 scale)); higher = more stable (slower turnover)
Settings: temperature: 30 C
Method: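 MPS profiling in S. cerevisiae of the yeast C-terminome library: the last 12 aa of each annotated ORF are fused to the C-terminus of a sfGFP-mCherry timer, after a GGGS linker. Cells are FACS-sorted into 8 mCherry/sfGFP bins and deep-sequenced. PSI runs from 0 (unstable) to 1 (stable); wild type and das1Δ backgrounds, two technical replicates each.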

[1] = genetic background: das1 deletion

Row | Sequence | protein stability index [1] | protein stability index (genetic background: wild type)
1 | AFRSLQKSKKKK [PKH3 C-terminal 12 aa] | 0.717 ± 0.042 | 0.793 ± 0.034
2 | DLAERLAETEIK [RNA1 C-terminal 12 aa] | 0.703 ± 0.0088 | 0.692 ± 0.024
3 | TTNANVNNSSLS [FKH1 C-terminal 12 aa] | 0.715 ± 0.021 | 0.6623 ± 0.0022
4 | GLLLPLCHRKRS [YOR012W C-terminal 12 aa] | 0.706 ± 0.015 | 0.411 ± 0.039
5 | VAASKASKKSKI [NSA1 C-terminal 12 aa] | 0.683 ± 0.035 | 0.677 ± 0.085
6 | RTAYILMYQKRN [UBP3 C-terminal 12 aa] | 0.782 ± 0.014 | 0.1351 ± 0.00015
7 | FCIFNNVVFPML [RRT1 C-terminal 12 aa] | 0.717 ± 0.011 | 0.7002 ± 0.0035
8 | VPKSLYGVTRTR [GAT3 C-terminal 12 aa] | 0.697 ± 0.008 | 0.686 ± 0.032
9 | ECDGITVPEKLT [MSC6 C-terminal 12 aa] | 0.682 ± 0.012 | 0.708 ± 0.011
10 | DKEVVYFDEWTI [RPC34 C-terminal 12 aa] | 0.726 ± 0.062 | 0.729 ± 0.032
11 | FCHGAEDAWNIL [EMG1 C-terminal 12 aa] | 0.7275 ± 0.0017 | 0.712 ± 0.012
12 | EAVYELAKMSLA [MYG1 C-terminal 12 aa] | 0.703 ± 0.025 | 0.6777 ± 0.0052
13 | IRMYLGSSLDIE [SRX1 C-terminal 12 aa] | 0.69 ± 0.013 | 0.6815 ± 0.0061
14 | NSKVMNIKALDH [MRPL10 C-terminal 12 aa] | 0.6653 ± 0.0031 | 0.6725 ± 0.0055
15 | HFKTLVEAFTRN [VPS52 C-terminal 12 aa] | 0.709 ± 0.0082 | 0.714 ± 0.047
16 | KARIVVAKSGEL [CPR1 C-terminal 12 aa] | 0.686 ± 0.018 | 0.645 ± 0.015
17 | MVTNDGFGSTVL [YLR379W-A C-terminal 12 aa] | 0.698 ± 0.013 | 0.734 ± 0.029
18 | KQYSSPEICFRV [YBR134W C-terminal 12 aa] | 0.692 ± 0.029 | 0.663 ± 0.014
19 | DKLAKLLSLDIH [MSH3 C-terminal 12 aa] | 0.7167 ± 0.0065 | 0.708 ± 0.025
20 | AVIVHSYTVQHM [TRM3 C-terminal 12 aa] | 0.695 ± 0.032 | 0.632 ± 0.046
21 | CRGIAEVNMKYT [PPS1 C-terminal 12 aa] | 0.6869 ± 0.0036 | 0.6326 ± 0.0059

Row | Sequence | protein stability index [1] | protein stability index (genetic background: wild type)
22 | HSRASVQSHPQH [DAL80 C-terminal 12 aa] | 0.7271 ± 0.0023 | 0.699 ± 0.03
23 | VPDIPPPPALVA [NUP42 C-terminal 12 aa] | 0.632 ± 0.034 | 0.6989 ± 0.0048
24 | FDDDLTAQLYYP [TDA8 C-terminal 12 aa] | 0.7291 ± 0.0033 | 0.744 ± 0.043
25 | YKIKKQPRKKQQ [HST1 C-terminal 12 aa] | 0.739 ± 0.015 | 0.708 ± 0.081
26 | QSKNIEIFSQIK [YGR067C C-terminal 12 aa] | 0.71 ± 0.031 | 0.695 ± 0.018
27 | LSDYLSHDFASC [YNL040W C-terminal 12 aa] | 0.688 ± 0.011 | 0.694 ± 0.04
28 | RGFSFMPDDLDL [PKC1 C-terminal 12 aa] | 0.722 ± 0.013 | 0.72 ± 0.028
29 | SMTTTNFSDFSL [UPC2 C-terminal 12 aa] | 0.6932 ± 0.0047 | 0.688 ± 0.036
30 | WTLLSRFLDREW [ATG36 C-terminal 12 aa] | 0.684 ± 0.015 | 0.6939 ± 0.0011
31 | RLKSSVICSGTS [YLR399W-A C-terminal 12 aa] | 0.68237 ± 6.9e-05 | 0.664 ± 0.015
32 | NILPMTYLLKKK [DPI34 C-terminal 12 aa] | 0.697 ± 0.049 | 0.6405 ± 0.0054
33 | LWVTLLPEFTNF [YBR121C-A C-terminal 12 aa] | 0.768 ± 0.018 | 0.75 ± 0.029
34 | KFSSTSRYMQYN [RPT1 C-terminal 12 aa] | 0.705 ± 0.016 | 0.642 ± 0.017
35 | KAINFDEDVLNL [VID30 C-terminal 12 aa] | 0.66 ± 0.017 | 0.748 ± 0.02
36 | NGNNVASLNTKK [TAF12 C-terminal 12 aa] | 0.6865 ± 0.0016 | 0.664 ± 0.011
37 | NDLITYLKKACE [CYC1 C-terminal 12 aa] | 0.68 ± 0.01 | 0.683 ± 0.011
38 | FAAVSFVLGTGI [NCW1 C-terminal 12 aa] | 0.714 ± 0.008 | 0.709 ± 0.017
39 | NYGQYSSFWSLL [YOR055W C-terminal 12 aa] | 0.765 ± 0.019 | 0.754 ± 0.017
40 | KDSAQSLDDLLM [SFM1 C-terminal 12 aa] | 0.7007 ± 0.0043 | 0.6969 ± 0.0046
41 | VSPYDYNHKRVS [DIB1 C-terminal 12 aa] | 0.69264 ± 0.00023 | 0.678 ± 0.035
42 | DIYNQLHMFGEK [IGD1 C-terminal 12 aa] | 0.663 ± 0.0086 | 0.688 ± 0.01

Row | Sequence | protein stability index [1] | protein stability index (genetic background: wild type)
43 | RPWYVRQFHFWC [TAT2 C-terminal 12 aa] | 0.713 ± 0.0097 | 0.538 ± 0.011
44 | DPNGILNPYKYI [DLD2 C-terminal 12 aa] | 0.708 ± 0.024 | 0.6117 ± 0.003
45 | ACFVFSPSAMVT [BRP1 C-terminal 12 aa] | 0.6493 ± 0.0022 | 0.637 ± 0.028
46 | MHSNFQNLFNLK [CLB5 C-terminal 12 aa] | 0.708 ± 0.026 | 0.707 ± 0.026
47 | LTALLETVNKYR [GCG1 C-terminal 12 aa] | 0.7 ± 0.016 | 0.682 ± 0.014
48 | SVFCRNYPSFLL [YMR086C-A C-terminal 12 aa] | 0.697 ± 0.011 | 0.7 ± 0.035
49 | KLQPQVYKPWSL [RSC8 C-terminal 12 aa] | 0.6842 ± 0.0019 | 0.703 ± 0.0092
50 | MGVVAAVGVALL [ECM33 C-terminal 12 aa] | 0.678 ± 0.019 | 0.642 ± 0.0081
51 | LIPELYSVLDGF [YDL007C-A C-terminal 12 aa] | 0.7449 ± 0.0037 | 0.74 ± 0.051
52 | DKVPVHYPPVVE [SYM1 C-terminal 12 aa] | 0.686 ± 0.028 | 0.709 ± 0.045
53 | KRRSDSKESRKL [YPR145C-A C-terminal 12 aa] | 0.713 ± 0.037 | 0.673 ± 0.03
54 | ISSGPPPRSPNK [IGO2 C-terminal 12 aa] | 0.68 ± 0.01 | 0.6422 ± 0.0036
55 | LLEDLRSRIDLD [MLO50 C-terminal 12 aa] | 0.685 ± 0.048 | 0.744 ± 0.087
56 | NQYANNLNLIDM [YAP1801 C-terminal 12 aa] | 0.694 ± 0.026 | 0.672 ± 0.029
57 | AEHHLQTFLSEK [ISC1 C-terminal 12 aa] | 0.6488 ± 0.0013 | 0.641 ± 0.02
58 | NPADYLLEFGSG [RTG3 C-terminal 12 aa] | 0.7103 ± 0.0023 | 0.72 ± 0.029
59 | FFFPLFLFLYHL [YHR180W-A C-terminal 12 aa] | 0.436 ± 0.0054 | 0.306 ± 0.0032
60 | WQLVDNYESGYE [YGL194C-A C-terminal 12 aa] | 0.7087 ± 0.0048 | 0.648 ± 0.031
61 | EYIVNVNEYGHD [YOL153C C-terminal 12 aa] | 0.6799 ± 0.0043 | 0.678 ± 0.0079
62 | LEKHTASDTSCI [YAL066W C-terminal 12 aa] | 0.727 ± 0.025 | 0.692 ± 0.072
63 | SKFGSIFKKVFG [YGR237C C-terminal 12 aa] | 0.689 ± 0.017 | 0.775 ± 0.077

Row | Sequence | protein stability index [1] | protein stability index (genetic background: wild type)
64 | PFKAIFDAVTKE [ARO1 C-terminal 12 aa] | 0.73 ± 0.014 | 0.717 ± 0.021
65 | LLHTVMNENKLP [LST7 C-terminal 12 aa] | 0.716 ± 0.03 | 0.687 ± 0.054
66 | KILTQHLQDLQS [RKM2 C-terminal 12 aa] | 0.6934 ± 0.0063 | 0.714 ± 0.077
67 | SMPLYKDVQKDA [RBK1 C-terminal 12 aa] | 0.717 ± 0.027 | 0.665 ± 0.015
68 | EKEFTGNSQSEK [NMA111 C-terminal 12 aa] | 0.6859 ± 0.006 | 0.742 ± 0.039
69 | RLGDVLHVCCPS [YHL049C C-terminal 12 aa] | 0.717 ± 0.03 | 0.7 ± 0.097
70 | YLALKWIVVEQK [ADP1 C-terminal 12 aa] | 0.521 ± 0.021 | 0.573 ± 0.018
71 | LMKLFKSSKFSK [GEM1 C-terminal 12 aa] | 0.724 ± 0.024 | 0.694 ± 0.077
72 | VVVTGNLQILEH [UGP1 C-terminal 12 aa] | 0.678 ± 0.03 | 0.684 ± 0.019
73 | SFHKEFFDQYRD [ALT1 C-terminal 12 aa] | 0.7326 ± 0.0045 | 0.774 ± 0.048
74 | ACFTRLPTPAIL [TRM8 C-terminal 12 aa] | 0.68 ± 0.0089 | 0.6593 ± 0.0055
75 | FRSQRLHMDSKP [BUD27 C-terminal 12 aa] | 0.727 ± 0.018 | 0.6682 ± 0.0053
76 | RNRLENISTMVI [YIA6 C-terminal 12 aa] | 0.71 ± 0.012 | 0.709 ± 0.019
77 | SLIKQVGVKLDR [JHD2 C-terminal 12 aa] | 0.671 ± 0.025 | 0.67 ± 0.013
78 | FCMGVAAFVTTA [UTP21 C-terminal 12 aa] | 0.493 ± 0.013 | 0.497 ± 0.0075
79 | IKTIVEAMDVLS [PCC1 C-terminal 12 aa] | 0.67028 ± 4.3e-05 | 0.656 ± 0.025
80 | DEQPTLSQSKTK [DAD1 C-terminal 12 aa] | 0.708 ± 0.012 | 0.714 ± 0.076
81 | TFKGLYAEANSI [YOR111W C-terminal 12 aa] | 0.739 ± 0.01 | 0.716 ± 0.031
82 | HKQCDSLLDRLK [PTA1 C-terminal 12 aa] | 0.698 ± 0.024 | 0.7053 ± 0.0067
